Assay results from patent CN102875678A (WUXI PROGRAMMED ARTIFICIAL MOLECULAR EVOLUTION CO LTD, dated 2013).

Legend:
[1] = biological target: hCD20 on B cell lines (Ramos, DHL-4, Daudi, Raji) (human) (UniProt P11836); assay: cell-based or functional assay
重组人CD20蛋白 = biological target: T1, 重组人CD20蛋白 (human, UniProt P11836 1-297, limits assumed); assay: Friguet method, full-length antibody and human CD20
T1 construct: also called hCD20
T1 sequence (looked up): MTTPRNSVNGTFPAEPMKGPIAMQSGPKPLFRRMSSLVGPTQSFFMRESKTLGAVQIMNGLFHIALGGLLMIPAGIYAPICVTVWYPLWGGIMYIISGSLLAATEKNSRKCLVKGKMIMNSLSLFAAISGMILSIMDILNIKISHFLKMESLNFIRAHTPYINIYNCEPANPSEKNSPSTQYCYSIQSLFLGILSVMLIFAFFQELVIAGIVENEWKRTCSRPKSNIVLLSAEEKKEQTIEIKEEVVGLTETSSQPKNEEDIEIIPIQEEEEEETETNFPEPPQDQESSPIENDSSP

重组人CD20蛋白 (human) [2] = biological target: 重组人CD20蛋白 (human) (UniProt P11836); assay: as above
重组人CD20蛋白 (human) [3] = biological target: 重组人CD20蛋白 (human) (UniProt P11836); assay: Friguet method, Fab and human CD20 in solution, ELISA on immobilised human CD20

“2F2 (即HuMax-CD20), full length (antibody)” showed an ADCC靶细胞裂解 (Raji细胞, MNC效应细胞, 51Cr释放) [1] of 35%, a CDC细胞裂解比例 (Daudi和Raji细胞, 10μg/ml抗体, 人血清) [1] greater than 80% and a Kd (重组人CD20蛋白) of 0.121 nM.

C2B8 (即Rituxan), full length (antibody) gave a Kd (重组人CD20蛋白 (human) [2]) of 3.51 nM.

In the case of C2B8 Fab, the Kd (重组人CD20蛋白 (human) [3]) is reported as 1.83 nM.

B1: 全长8G3 (F8G3) (antibody)
chain 1: EVQLVESGGGLVQPGESLRLSCAGSGFTFNDYAMHWVRQMPGKGLEWVSTIYPW
chain 2: EIVLTQSPATLSLSPGERATLSCRASQFVGFYIHWYQQKPGQAPRLLIYAASERATGVPSRFSGSGSGTDFTLTISSLEPEDFAVYYCQQWLNNPFTFGQGTRLEII
Work on B1 yielded a Kd (重组人CD20蛋白) of 0.037 nM.
